Assay: soluble on expression in E. coli; label from the status in PepcDB or PDB records

| Sequence | soluble on expression in E. coli |
| --- | --- |
| MSLDNDIFKLNVYIKNIDTSKSNLRYTEGYLQSLTNILTRAKEIAIQGASGTYESDDKKMISKEVNALLEDVVAIANAKGPDGYSIFSGTKIDSEAFKVTRENKISKTSKDGAGPQIIKVEYNGNQAEKKTEVYNDIHMSNNYPGNVIFFLQNQNIISSINTNGFAVKENTKIYIDNIEIGLTAGDTALDIVAKINESSAPVEASIDPVLNSLSIKTTTPHQIWITEEKESNVLQTLGILTKNNDTKLPPYNLSSSTEVRSRSIFDALIELRDTLYNNKEELVGSRSLAEIDESLKRLLISVADLGAKENRLDRSYERISKEAADMKEDMIQYTDLDVTKAITNLNMASLAYQVSIGISAKIMQTTLLDFIKEGHHHHHH | not soluble |
| MSKRCASDRDDKDSEPVKKPRFSIANILDEVEDEEDVEVDVEDVDDVDLSSIPSKSPERSRGRPKIGLKMKEGNLPIECKLEGSELWAKFFDLGTEMIITKSGRRMFPTVKVSFTNVILDALYYIFLDVVPVDSKRYRYIYNKSAWLTAGKAEPVPKNRYYLHPDSPFTGDQLLKHVISFEKTKLTNNEVDKTGHLILNSMHKYQPRIHIVQRQKANPLDPNKVVMSEEKHCTYTFPETQFMAVTAYQNQLITKLKIEKNPFAKGFRDPTGRSPDEMERSPGDMMLSNFYHSSALQQAMFQQCLSKTLQLNPSIMMLYQNVFPTGNSLPAAPTVPGNPAEISIKSE | soluble |
| MGSDKIHHHHHHMFTVMDIVQPDTVEEAYSILNKRKTNQVIGGSAFLRMGKKRIGTGIELSKLNLDYIKEYEDYVEIGSMTTFRTLETSSIIKNNFGRIIEDSVKNIIGVQFRNVVTVGATVFSKYGFSDLIVALLSLDTEVELYNIGRISLEEFLNRDYEKDLLIKIYIKKTNKNASYKSLRNAKSDYPILNVSVSKHMEQFKLCVGARPQKATIAKQASEFLSNNEINEINIDKAVEIASEELTFGSNMRASREYRKAMSKVLLKRAIMEVI | not soluble |
| MGHHHHHHSHMRFFHWFSKWRKLHRDQEYEVTWYISWSPCTKCTRDMATFLAEDPKVTLTIFVARLYYFWDPDYQEALRSLCQKRDGPRATMKIMNYDEFQHCWSKFVYSQRELFEPWNNLPKYYILLHIMLGEILR | not soluble |
| SLLLLQSILITKIMVIQLILFFEYALASGFEDKNILKEGKMMFDTLLKQFLEIDKVISLLYKDFVDNYIDFKNLEIVKIKKENEIENKLKSLLKSENIDYALVVAPEDEDILYNLTKIIESYPVKNLGCSSEAIKIAGNKYLTYLAIKDAVKTPKTFPPKKYVVKKIDSCGGKFNLFDENFLIQEFIDGENLSVSLIVGKKIHPLSLNRQYIDKRGFVGGEVNINHKLKDKIFNEAIKAVKCINGLNGYVGVDVIVNNDGIYIIEINPRITTTIYGLKTNPSLAELLIKNANNEELKFKVKGEKFTIDK | not soluble |
| MGSDKIHHHHHHQPTGTMTTDSKLTSKESALALTNSAYLKNTVFNKMTPGWGCNTILLLEYMTGKATSENSQSNYKDFQDLLVSDRSLYIEDWWQDCYAGIANCNLALQKLGEFENLDASLVNGYMAEVKFMRALYYFYLVRIFGDVPKITTVQSELGELQVSRAPVKEIYDEIIIPDLLEAEQSDLAFSDHTGRVSMGAVKALLADVYLTYAGYPLQGGKSYYAESAKRSLEVIKSNEYTLFTDYESLRLPSQNNKGEFIYQVQFSLNKRHNESVRIFLPSRSGISAYDLEYGSLIPTKEFVESFEKGDKRTEEKQYFFTNYKGHPSKFSPGAAELEFMDLNGYYIYKFFDQVAVDNTAKSDLNWSVYRYTDVLLMYAEAQVNADGTPNQQSIDIVNQIRGRAGLAPFKQTNASAFLEEVWDQRYFDLCYENKMWFDMLRTRKIRDDKSGEYVDFIGYKTNWGKVYTETQLLFPIPLSERQANPNLTQNQGY | not soluble |
| MGSDKIHHHHHHMYPKNTWYVACTPDEIATKPLGRQICGEKIVFYRARENQVAAVEDFCPHRGAPLSLGYVEDGNLVCGYHGLVMGCDGKTVSMPGQRVRGFPCNKTFAAVERYGFIWVWPGDQAQADPALIPHLEWAVSDEWAYGGGLFHIGCDYRLMIDNLMDLTHETYVHASSIGQKEIDEAPPVTTVTGDEVVTARHMENIMAPPFWRMALRGNGLADDVPVDRWQICRFTPPSHVLIEVGVAHAGKGGYHAEAQHKASSIVVDFITPESDTSIWYFWGMARNFAAHDQTLTDNIREGQGKIFSEDLEMLERQQQNLLAHPERNLLKLNIDAGGVQSRKVLERIIAQERAPQPQLIATSANPA | not soluble |
| MGSDKIHHHHHHDSVKTNTNPQQAIQGEWISYSESKINLPKTTSAADAHKLLDLTASTSEKIKFDKKKVTLATNEYDYKLGRQIIIGSYSYDYKLEHGQDILKFDTTSSDIGGNVYYRVGSKLEKEKTKEINDKEAKEKKSVTHLNEVWKAKTDIIEKSLKEAMIGTWSGHFKAVATTGQGVAWAPGMQTLTFDGGTNLSFHASSDSLTNFDQIVIHNAYASYQPNGILGLEPSDHIPVDPKKLLNIIKDLTAEQMFSRIKYIAFSYDVTTDTGTISQSFSPSELSYKNGKLSFDTALLITQCGDEGVQISGDVSKTE | not soluble |
| MSLADEMGYVPDRRAQKLRQASSRLLGVVFELQQPFHGDLVEQIYAAATRRGYDVMLSAVAPSRAEKVAVQALMRERCEAAILLGTRFDTDELGALADRVPALVVARASGLPGVGAVRGDDVAGITLAVDHLTELGHRNIAHIDGADAPGGADRRAGFLAAMDRHGLSASATVVTGGTTETEGAEGMHTLLEMPTPPTAVVAFNDRCATGVLDLLVRSGRDVPADISVVGYDDSRLARIPHVQMTTISQDATHMAEAAVDGALAQISGDKAVDLVLAPHLVRRATTGPVAHREGHHHHHH | soluble |
| MAHHHHHHMNSSTVSEDIALAGIKKEVLRSLPFWKSFVELREAYHRRPRVFSCDVSIKSRKACSHFVGFDVLWVQSEVVLVSWRRPSKRNRANDFPPEFVEVHLTFGSMHFVHQNVHLVGDHCSYSLQSVVLLQRPEQLQCVAGNMVHFAFLVYGMLHISQRDGFLTDPRAILPPPNSAVMLLGMGGNSMERGIRYILGEDAHIYIAEIEPAVVSTCRFAGLLKENANTHVCLDSAERTIQKCPEKCTFIFMDLFEPLSGNMVNTMPLIRQAFDILAPNGILLINEHSIPTVEHLLPLLHLFGDHNVQFVNVRGWNESIIAATKPGGNADGLGRKCSKRLATDVLNDFDHTFPGWMPDKNYILRSQILYAKPLTLKLRARQWTS | not soluble |
| SSAQFDHVTVIKKSNVYFGGLCISHTVQFEDGTKKTLGVILPTEQPLTFETHVPERMEIISGECRVKIADSTESELFRAGQSFYVPGNSLFKIETDEVLDYVCHLE | not soluble |
| MGSDKIHHHHHHMPHKASVFIVEFKFELESCPLGVVIPLEESKNKLASVKPLVDLTRPDMERVNQLILSRAGSDVQMIPEVANHLISSGGKRLRPMLTLASASMFGYEGDNHIKLATSVEFMHTATLLHDDVVDESDLRRGKSTARTIWGNQASVLVGDFLLGQAFRMMVDVGSLDALDVLSTAASVIAEGEVLQLSVAKNMETTEDDYLQVIRAKTAALFAAAAEVGPIVAKTDKASRSALKSYGMNLGLAFQLVDDVLDYGGKSADLGKNTGDDFREGKITLPVILSYRRGTQDERAFWRNAIEKGESSDENLEKALGLITKYNGLGDTIGRATHYGTIARDALAPLPQSPWKNALLEVIDFCIERLN | not soluble |
| MNGGCDLWIGCARWLRDMKVLTTDKNGTMLEFASVLRDGILLCRLANTLVPNGIDQKKIMRTNQPSPFLCCNNINYFAMFCKTYFNLEDADLFTAEDLYYMNGFQKVLKTLSFLSHTKESLSRGVDPFPDTDNNQEGTSNGSEFEDDVEIYQSLHDNIENVDPNRTIYGPITSADPEEQQSEQLYDRIVTNRKPSMNENDLQNTPTLKRNRCIRELYDTEKNYVAQALVTIIKTFYEPLKGIIPTSDYNIIFGNIEEINVLHTALLADLEYPVKVALGLSDATPPRPISLNECVPQTIGEVFIKYRDQFLAYGKYCSNLPDSRKLSNELLKTNEFISRNINELTAQGNCKFGMNDLLCVPFQRLTKYPLLLKELQKKTDLASPDRKSLEEAVEVMEDVCNYINEESRDTNAIKVIDEIEQSITDLSMPLNVKLHDYGRVNLDGEVKMAESTLTQAGKPKQRYIFLFDKVIVVCKAANKVMAAKTTGASARTNTFTYKNAYVMSELTIDKNASLDVKSGGTITRRTQYVIIMTRDRNENNEITQLTFYFKNEATRNNWMTALLLSKSNVSPTDYLRDTNHKVAFHSFRVDVKNPATCDVCDKLMKGLQYQGYKCEFHEGDIVVANSNSTPSDLSYLQFAKGDRIEVIKMQGHNRFTGCLINNRNRTGLVHLDHVSQSRTTSMIGLSPIDSPAGSIAPRVVRNESTVLPNKLLSDGSSRSLSGPHGSRSSRNSSSSTINGSMDSVPRQQDYVNTEISEFLWYMGEMERAKAESTLKGTPNGTFLVRYSKNRKQTAISLSYKNDVKHMIIEQNSDGKVYLDEDYIFNSTVELVQYYRSNNLIEIFAALDTCLKNPYSQCKVFKAVHDYDAPSPNNEGKFLSFKTGDIVVLLDTVGEDRGWWKGQVNNKSGFFPLSYVKPYDPATEGSSSPVTPTSSSS | not soluble |
| MIWLVLVLSLFLFSCEKLNEIFLEEDLLQRPPSKRCSDCHAKIYEDWEKSRHAKAWVSEHFKEESENYSKLKCLSCHAPHQVDPLKKPVLRVERRHEGVNCIACHFKEETKAMHGPYKVFSPPHPSREDKNYTKSEICAGCHQKTYREWKIARVKTTCQQCHMKVVDYAWIMDKFPFFLFHSRKALHDHTFPAGKATPKDIKLILTEGALNIINVGIPHNLPTADQGNPKLYLIIEFYYKDGKKKVLRRVLSPQAKTALAYLIPYTVKIPRYEKLEKVRVSIYRRLAWEKKRELILSEELKKPF | not soluble |
| GMDQESNATSQDILKQHAAHYESDMGGLPEALVQLAEYAPETFDAYSRMRTTMLKSEADGAKLPLKYKHLILVVLDAIRDEPIGIVNHTRAAMNAGLSVDELIEGILLGIIVYGMPAWGKTGRKAVTFAVEFEKELAGKRT | soluble |
| MYSYADRLRAVELYIRLGKRLNTTIRQLGYPTKNALRGWYREYVQHLDLRTQPVARAPKYSEAQRQAALEHFRTHDRCISGTMRALGYPGRGTLTAWVREAFPEARTSMVGRSWHPGYSEEVRQAGVIGLCSGDESAQQVADRLGVSRPTLYSWKDQLLGHEASSSMKRRKANPKVPEREELERKLEALQRDVRQLQLEHDLLKKANELLKKGLGVDLLILSNREKTQLIDALKEVYRLPELLAQLRIARSSYFYHRARMCLADKYAAVRLSLAEIFEANRRCYGYRRLQASLARKSVIVSEKVVQRLMKQEHLAVARPRRRRFGSYLGEISPAPENLINRDFHADAPNVKWLTDITEFQIPAGKVYLSPIIDCFDGMVISWSIGTQPDAGLVNTMLDAAIGTVANGEERPIIHSDRGAHYRWPGWLTRISEARLVRSMSRKGCSQDNAACEGFFGRLKTELFYPRDWKAITIEQFVAEVDAYIRWYNEKRIKISLGSLSPVEYRQSLGLKLAAALEHHHHHH | soluble |
| AIAATPTEHEDLSEQEVTEDEFKTPKIRETPEDIKLEAIVNTIAFHPKQDILAAGDIDGDIYLFSYSCTEGENKELWSSGHHLKSCRKVLFSSDGQKLFSVSKDKAIHIMDVEAGKLETRIPKAHKVPINAMLLIDENIFATGDDEGTLKVWDMRKGTSFMDLKHHEDYISDITIDQAKRTLLTSSGDGTLGVFNIKRRRFELLSEIQNGDLTSVSIMKRGRKVVCGSGEGTIYIFNWNGFGATSDRFAVQAESVDCIVPITDSILCAASTDGVIRAINILPNRVVGSIGQHVGEAIEEIARCRDTHFLASCAHDELIKFWDISSLPDEKVNDYRRRKKKDRRLKALSNKAFDTGQNFFAGLLDTTEENGKEGENDEDDDDEDSDSGSD | soluble |

Source: the DeepSol protein solubility set
